In patent publication US20240317834A1, “COMPOSITIONS AND METHODS FOR NEUROLOGICAL DISEASES” (CODA BIOTHERAPEUTICS, INC., priority 2020, published 2024):

Test system: Lenti-X 293T cells
Experiment: YFP fluorescence quenching anion reporter plate reader assay of engineered receptors stimulated with acetylcholine or a non-native ligand
Type: cell-based
Conditions: for percent quench of YFP fluorescence, 30 nM TC-6683: TC-6683 30 nM; for percent quench of YFP fluorescence, 300 nM TC-6683: TC-6683 300 nM; for percent quench of YFP fluorescence, 3 uM TC-6683: TC-6683 3 uM; for percent quench of YFP fluorescence, 30 uM TC-6683: TC-6683 30 uM; for percent quench of YFP fluorescence, 100 uM TC-6683: TC-6683 100 uM; for percent quench of YFP fluorescence, 10 uM ach: acetylcholine 10 uM; for percent quench of YFP fluorescence, 100 uM ach: acetylcholine 100 uM; for percent quench of YFP fluorescence, 1 mM ach: acetylcholine 1 mM; for percent quench of YFP fluorescence, 3 mM ach: acetylcholine 3 mM
Method in brief: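 YFP quench was followed for about 1 min 43 s after ligand delivered in iodide-based ECS, pH 7.2. Values are end-of-read fluorescence (last 10 s) divided by the pre-ligand baseline (15 s). Cells were LX293T, transfected with receptor DNA a day before the assay.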

B1: CODA334: engineered chimeric LGIC receptor, L131Q in SEQ ID NO: 33 (protein)
chain: MRCSPGGVWLALAASLLHVSLQGEFQRKLYKELVKNYNPLERPVANDSQPLTVYFSLSLLQIMDVDEKNQVLTTNIWLQMSWTDHYLQWNVSEYPGVKTVRFPDGQIWKPDILLYNSADERFDATFHTNVQVNSSGHCQYLPPGIFKSSCPMDLKNFPMDVQTCKLKFGSWSYGGWSLDLQMQEADISGYIPNGEWDLVGIPGKRSERFYECCKEPYPDVTFTVTMRRRMGYYLIQMYIPSLLIVILSWISFWINMDAAPARVGLGITTVLTMTTQSSGSRASLPKVSYVKAIDIWMAVCLLFVFSALLEYAAVNFVSRQHKELLRFRRKRRHHKSPMLNLFQEDEAGEGRFNFSAYGMGPACLQAKDGISVKGANNSNTTNPPPAPSKSPEEMRKLFIQRAKKIDKISRIGFPMAFLIFNMFYWIIYKIVRREDVHNQ
modifications: synthetic sequence of chimeric LGIC
YFP fluorescence quenching using CNL001 (1 nM CNL001, first column): 76.165% | YFP fluorescence quenching using CNL001 (1 nM CNL001, second column): 78.463% | YFP fluorescence quenching using TC-5619/Bradanicline (3 nM brd): 41.92% | YFP fluorescence quenching using Varenicline (3 nM var, first column): −5.192 | YFP fluorescence quenching using Varenicline (3 nM var, second column): −4.327 | YFP fluorescence quenching using CNL001 (10 nM CNL001, first column): 79.349% | YFP fluorescence quenching using CNL001 (10 nM CNL001, second column): 78.238% | YFP fluorescence quenching using TC-5619/Bradanicline (30 nM brd): 63.65% | YFP fluorescence quenching using Facinicline (30 nM fac): 83.07 | YFP fluorescence quenching using Varenicline (30 nM var, first column): −0.688 | YFP fluorescence quenching using Varenicline (30 nM var, second column): 0.672 | YFP fluorescence quenching using CNL001 (50 nM CNL001, first column): 80.221% | YFP fluorescence quenching using CNL001 (50 nM CNL001, second column): 81.789% | YFP fluorescence quenching using ABT-126 (50 nM abt): 23.65% | YFP fluorescence quenching using CNL001 (100 nM CNL001, first column): 82% | YFP fluorescence quenching using CNL001 (100 nM CNL001, second column): 80.766% | YFP fluorescence quenching using CNL002 (100 nM CNL002): 49.9% | YFP fluorescence quenching using ABT-126 (100 nM abt): 61.83% | YFP fluorescence quenching using AZD-0328 (100 nM azd0328): 80.55% | YFP fluorescence quenching using Facinicline (100 nM fac): 85.36 | YFP fluorescence quenching using ABT-126 (300 nM abt): 76.44% | YFP fluorescence quenching using AZD-0328 (300 nM azd0328): 83.15% | YFP fluorescence quenching using TC-5619/Bradanicline (300 nM brd): 64.85% | YFP fluorescence quenching using Facinicline (300 nM fac): 84.19 | YFP fluorescence quenching using Varenicline (300 nM var, first column): 75.189 | YFP fluorescence quenching using Varenicline (300 nM var, second column): 74.923 | YFP fluorescence quenching using Varenicline (500 nM var, first column): 79.048 | YFP fluorescence quenching using Varenicline (500 nM var, second column): 80.337 | YFP fluorescence quenching using CNL001 (1 uM CNL001, first column): 81.707% | YFP fluorescence quenching using CNL001 (1 uM CNL001, second column): 82.665% | YFP fluorescence quenching using CNL002 (1 uM CNL002): 80.72% | YFP fluorescence quenching using ABT-126 (1 uM abt): 77.68% | YFP fluorescence quenching using TC-6987 (1 uM tc6987): 74.1 | YFP fluorescence quenching using Varenicline (1 uM var, first column): 79.766 | YFP fluorescence quenching using Varenicline (1 uM var, second column): 76.836 | YFP fluorescence quenching using TC-6987 (10 uM tc6987): 81.7 | YFP fluorescence quenching using CNL002 (30 uM CNL002): 80.97% | YFP fluorescence quenching using AZD-0328 (30 uM azd0328): 82.53% | YFP fluorescence quenching using Facinicline (30 uM fac): 82.75 | YFP fluorescence quenching using TC-6987 (500 uM tc6987): 80.18 | percent quench of YFP fluorescence, 30 nM TC-6683: −17.99% | percent quench of YFP fluorescence, 300 nM TC-6683: −23.26% | percent quench of YFP fluorescence, 3 uM TC-6683: −18.84% | percent quench of YFP fluorescence, 30 uM TC-6683: −16.92% | percent quench of YFP fluorescence, 100 uM TC-6683: −15.59% | percent quench of YFP fluorescence, 10 uM ach: −2.63% | percent quench of YFP fluorescence, 30 uM ach (acetylcholine 30 uM): 30.06% | percent quench of YFP fluorescence, 100 uM ach: 71.27% | percent quench of YFP fluorescence, 1 mM ach: 79.66% | percent quench of YFP fluorescence, 3 mM ach: 74.9%

B2: CODA335: engineered chimeric LGIC receptor, L131T in SEQ ID NO: 33 (protein)
chain: MRCSPGGVWLALAASLLHVSLQGEFQRKLYKELVKNYNPLERPVANDSQPLTVYFSLSLLQIMDVDEKNQVLTTNIWLQMSWTDHYLQWNVSEYPGVKTVRFPDGQIWKPDILLYNSADERFDATFHTNVTVNSSGHCQYLPPGIFKSSCPMDLKNFPMDVQTCKLKFGSWSYGGWSLDLQMQEADISGYIPNGEWDLVGIPGKRSERFYECCKEPYPDVTFTVTMRRRMGYYLIQMYIPSLLIVILSWISFWINMDAAPARVGLGITTVLTMTTQSSGSRASLPKVSYVKAIDIWMAVCLLFVFSALLEYAAVNFVSRQHKELLRFRRKRRHHKSPMLNLFQEDEAGEGRFNFSAYGMGPACLQAKDGISVKGANNSNTTNPPPAPSKSPEEMRKLFIQRAKKIDKISRIGFPMAFLIFNMFYWIIYKIVRREDVHNQ
modifications: synthetic sequence of chimeric LGIC
YFP fluorescence quenching using CNL001 (1 nM CNL001, first column): −9.942% | YFP fluorescence quenching using CNL001 (1 nM CNL001, second column): −0.475% | YFP fluorescence quenching using TC-5619/Bradanicline (1 nM brd): −2.39% | YFP fluorescence quenching using TC-5619/Bradanicline (3 nM brd): −4.08% | YFP fluorescence quenching using Varenicline (3 nM var, first column): 0.398 | YFP fluorescence quenching using Varenicline (3 nM var, second column): 3.947 | YFP fluorescence quenching using CNL001 (10 nM CNL001, first column): 17.889% | YFP fluorescence quenching using CNL001 (10 nM CNL001, second column): 38.46% | YFP fluorescence quenching using TC-5619/Bradanicline (10 nM brd): −3.3% | YFP fluorescence quenching using TC-5619/Bradanicline (30 nM brd): −9.69% | YFP fluorescence quenching using Facinicline (30 nM fac): 1.24 | YFP fluorescence quenching using Varenicline (30 nM var, first column): 5.31 | YFP fluorescence quenching using Varenicline (30 nM var, second column): 7.666 | YFP fluorescence quenching using CNL001 (50 nM CNL001, first column): 61.741% | YFP fluorescence quenching using CNL001 (50 nM CNL001, second column): 69.159% | YFP fluorescence quenching using ABT-126 (50 nM abt): −18% | YFP fluorescence quenching using CNL001 (100 nM CNL001, first column): 73.635% | YFP fluorescence quenching using CNL001 (100 nM CNL001, second column): 76.092% | YFP fluorescence quenching using CNL002 (100 nM CNL002): −14.53% | YFP fluorescence quenching using ABT-126 (100 nM abt): −16.39% | YFP fluorescence quenching using AZD-0328 (100 nM azd0328): 11.33% | YFP fluorescence quenching using TC-5619/Bradanicline (100 nM brd): −1.05% | YFP fluorescence quenching using ABT-126 (300 nM abt): −15.05% | YFP fluorescence quenching using AZD-0328 (300 nM azd0328): 44.15% | YFP fluorescence quenching using TC-5619/Bradanicline (300 nM brd): 10.53% | YFP fluorescence quenching using Facinicline (300 nM fac): 46.92 | YFP fluorescence quenching using Varenicline (300 nM var, first column): 4.327 | YFP fluorescence quenching using Varenicline (300 nM var, second column): 3.275 | YFP fluorescence quenching using Varenicline (500 nM var, first column): 1.835 | YFP fluorescence quenching using Varenicline (500 nM var, second column): 4.863 | YFP fluorescence quenching using CNL001 (1 uM CNL001, first column): 80.633% | YFP fluorescence quenching using CNL001 (1 uM CNL001, second column): 79.637% | YFP fluorescence quenching using CNL002 (1 uM CNL002): 6.45% | YFP fluorescence quenching using ABT-126 (1 uM abt): −5.56% | YFP fluorescence quenching using TC-5619/Bradanicline (1 uM brd): 34.72% | YFP fluorescence quenching using TC-6987 (1 uM tc6987): −0.14 | YFP fluorescence quenching using Varenicline (1 uM var, first column): 9.471 | YFP fluorescence quenching using Varenicline (1 uM var, second column): 7.505 | YFP fluorescence quenching using TC-6987 (3 uM tc6987): −8.32 | YFP fluorescence quenching using TC-6987 (5 uM tc6987): −2.13 | YFP fluorescence quenching using Facinicline (10 uM fac): 79.06 | YFP fluorescence quenching using TC-6987 (10 uM tc6987): 0.13 | YFP fluorescence quenching using CNL002 (30 uM CNL002): 57.43% | YFP fluorescence quenching using AZD-0328 (30 uM azd0328): 80.96% | YFP fluorescence quenching using Facinicline (30 uM fac): 81.06 | YFP fluorescence quenching using TC-6987 (30 uM tc6987): −6.86 | YFP fluorescence quenching using TC-6987 (50 uM tc6987): −9.5 | YFP fluorescence quenching using TC-6987 (100 uM tc6987): −10.98 | YFP fluorescence quenching using TC-6987 (300 uM tc6987): −12.16 | YFP fluorescence quenching using TC-6987 (500 uM tc6987): −2.41 | percent quench of YFP fluorescence, 30 nM TC-6683: −13.84% | percent quench of YFP fluorescence, 300 nM TC-6683: −20.66% | percent quench of YFP fluorescence, 3 uM TC-6683: −17.86% | percent quench of YFP fluorescence, 30 uM TC-6683: −18.91% | percent quench of YFP fluorescence, 100 uM TC-6683: −16.88% | percent quench of YFP fluorescence, 10 uM ach: −9.13% | percent quench of YFP fluorescence, 100 uM ach: −9.29% | percent quench of YFP fluorescence, 1 mM ach: 0.57% | percent quench of YFP fluorescence, 3 mM ach: 35.37%
